Experimental data taken from PMC8956589, “Crystal structure of progeria mutant S143F lamin A/C reveals increased hydrophobicity driving nuclear deformation” (Communications Biology, 2022).
Positions count from the first letter of the chain named. Names and notes keep the numbering of the source.

B1: wild-type lamin A/C fragment (residues 1–300) (domain or fragment, human, UniProt P02545 1-300, looked up)
chain: METPSQRRATRSGAQASSTPLSPTRITRLQEKEDLQELNDRLAVYIDRVRSLETENAGLRLRITESEEVVSREVSGIKAAYEAELGDARKTLDSVAKERARLQLELSKVREEFKELKARNTKKEGDLIAAQARLKDLEALLNSKEAALSTALSEKRTLEGELHDLRGQVAKLEAALGEAKKQLQDEMLRRVDAENRLQTMKEELDFQKNIYSEELRETKRRHETRLVEIDNGKQREFESRLADALQELRAQHEDQVEQYKKELEKTYSAKLDNARQSAERNSNLVGAAHEELQQSRIRID
notes: human lamin A/C, residues 1-300 (head, coil 1a, L1, coil 1b, L12 and part of coil 2); Dimer by SEC-MALS; The vector pProEx-HTa is named for the S143F construct; also called lamin 300 fragment; wild-type lamin 300 fragment; source: E. coli, purified (cobalt-Talon, TEV cleavage, HiTrap Q, SEC)
B2: hexaHis-tagged lamin fragment (residues 250–400) (domain or fragment, human, UniProt P02545 250-400, looked up)
chain: AQHEDQVEQYKKELEKTYSAKLDNARQSAERNSNLVGAAHEELQQSRIRIDSLSAQLSQLQKQLAAKEAKLRDLEDSLARERDTSRRLLAEKEREMAEMRARMQQQLDEYQELLDIKLALDMEIHAYRKLLEGEEERLRLSPSPTSQRSRG
notes: human lamin A/C, residues 250-400 (C-terminal fragment of coil 2); also called His-lamin 2 C fragment; lamin 2 C fragment; source: E. coli, purified
B3: S143F mutant lamin A/C fragment (residues 1–300) (domain or fragment, human, UniProt P02545 1-300, looked up)
chain: B1 chain with S143F
notes: human lamin A/C, residues 1-300, with the disease mutation S143F (a genetic mutation found in patients); Vector pProEx-HTa; Ordered in the crystal: residues 29-229 and 31-229; also called S143F mutant lamin 300 fragment; Lamin S143F (residues 1–300); source: E. coli BL21 (DE3) or B834 (DE3), purified (cobalt-Talon, TEV cleavage, HiTrap Q, SEC)

Key:
[1] = target: the molecule itself; experiment: SEC-MALS; 2 mg/mL sample on Superdex 200 Increase 10/300 GL, 20 mM Tris-HCl (pH 7.5), 150 mM NaCl
[2] = target: B3; experiment: pull-down; hexaHis-tagged lamin 250–400 immobilised on Ni-NTA resin as bait, tagless lamin 300 fragments as prey; 20 mM Tris-HCl (pH 8.0), 50 mM or 150 mM NaCl, 20 mM imidazole in the wash, room temperature, 30 min; SDS-PAGE; settings: both partners purified
[3] = target: B1; experiment: as above; settings: both partners purified

Row | binding result [2] | binding result [3] | Binder | stoichiometry N [1]
1 |  |  | B1 | 2
2 | binds | binds | B2 | 
3 |  |  | B3 | 2
